Laboratory results taken from paper doi:10.1101/2023.11.18.567679 (bioRxiv, 2023).

T1: Tse15 central Rhs domain (residues 335-1395) (Acinetobacter baumannii (strain …, UniProt A0A5K6CSR3 335-1395))
T1 sequence (looked up): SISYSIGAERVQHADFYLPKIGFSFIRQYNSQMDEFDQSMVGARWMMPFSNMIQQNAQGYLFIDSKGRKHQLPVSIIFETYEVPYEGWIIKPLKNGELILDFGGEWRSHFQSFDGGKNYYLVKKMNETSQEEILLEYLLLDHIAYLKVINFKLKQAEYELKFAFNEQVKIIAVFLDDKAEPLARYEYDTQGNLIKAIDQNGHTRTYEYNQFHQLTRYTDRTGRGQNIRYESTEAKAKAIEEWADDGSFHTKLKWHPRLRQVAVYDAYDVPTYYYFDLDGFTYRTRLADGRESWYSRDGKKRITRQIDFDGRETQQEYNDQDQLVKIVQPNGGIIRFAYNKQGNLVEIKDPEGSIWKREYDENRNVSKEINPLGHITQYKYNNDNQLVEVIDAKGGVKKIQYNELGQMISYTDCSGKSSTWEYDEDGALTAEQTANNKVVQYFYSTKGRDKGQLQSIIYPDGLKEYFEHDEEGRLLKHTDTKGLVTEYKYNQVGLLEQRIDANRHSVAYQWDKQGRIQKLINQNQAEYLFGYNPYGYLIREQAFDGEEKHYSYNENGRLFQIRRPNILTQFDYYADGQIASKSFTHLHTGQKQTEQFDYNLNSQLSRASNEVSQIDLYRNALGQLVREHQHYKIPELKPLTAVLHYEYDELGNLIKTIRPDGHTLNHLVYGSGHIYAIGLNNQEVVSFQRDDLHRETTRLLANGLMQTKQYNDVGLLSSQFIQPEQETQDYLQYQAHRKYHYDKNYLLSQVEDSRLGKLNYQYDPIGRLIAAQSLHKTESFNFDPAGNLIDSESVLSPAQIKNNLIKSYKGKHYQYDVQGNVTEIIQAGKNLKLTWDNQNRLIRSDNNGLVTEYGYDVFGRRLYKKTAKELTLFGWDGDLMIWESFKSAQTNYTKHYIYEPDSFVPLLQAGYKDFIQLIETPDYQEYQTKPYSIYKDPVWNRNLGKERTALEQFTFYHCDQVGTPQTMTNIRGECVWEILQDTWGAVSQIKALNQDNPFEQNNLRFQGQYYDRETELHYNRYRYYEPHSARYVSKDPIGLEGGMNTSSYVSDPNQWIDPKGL

B1: Tse15 N-terminal clade domain (residue 1-334) (domain or fragment, UniProt A0A5K6CSR3 1-334, looked up)
chain: MAKENTQQKEIKRQPAVELAVFNLNSVTDVADLQMIASQVQLYLQVCGNTTLEQIKSKANITTVANIFALTGSVLDLMLYATDKKTGDAAVQRGALLAANLIGLFSEPNNEAHARMALRPMFGLMAECLYRENGKIKETDIKRLGLHLNAMIAGDLENFLKETQAKLSSLLISATTLGVTILQSMATPATGINAGITTAAGASAEKRDPKLKFTNWAVPLIDLLGKPSQANLTPKIQPNITSRLQQEATQAIAALSQTLQQQANAGQKYTLAWLLQETLKAIQALENKGNASVPINQTGEYERHTKGDTLEFVSLQADALNAPPCEGADSQSGK
B2: Tse15 toxic C-terminal domain (residues 1396-1590) (domain or fragment, UniProt A0A5K6CSR3 1396-1590, looked up)
chain: NSFNYGEMFGIPASAQSGLAYQGQRNYECYAETGELCKIKVPPLFDYVACSGGGLGIGVGFVKNQWTGEYYISGSKDSLLIPVAKSVAQNKQFSAKDLAGASCVGGNIHNIPSYTKTTMTMGEITNEFVSGASVTVGGGAYGAVANVVVPLVSKSSPVKGTWASELGVGTPGFNVGVSGTVSVDTILDAVKPSKK

How the values were obtained:
[1] = molecular target: T1, Tse15 central Rhs domain (residues …); assay: SEC
[2] = molecular target: B1; assay: pull-down
[3] = molecular target: T1, Tse15 central Rhs domain (residues …); assay: pull-down

| Binder | binding result [1] | binding result [2] | binding result [3] |
| --- | --- | --- | --- |
| B1 | binds |  |  |
| B2 |  | binds | binds |
